Molecular target: T1, rhCD6FC/Chimera (R and D systems) (human, UniProt P30203 25-398)
T1 construct: Bought reagent; also called CD6 receptor; Fc part of the bought chimera not given
T1 sequence (looked up): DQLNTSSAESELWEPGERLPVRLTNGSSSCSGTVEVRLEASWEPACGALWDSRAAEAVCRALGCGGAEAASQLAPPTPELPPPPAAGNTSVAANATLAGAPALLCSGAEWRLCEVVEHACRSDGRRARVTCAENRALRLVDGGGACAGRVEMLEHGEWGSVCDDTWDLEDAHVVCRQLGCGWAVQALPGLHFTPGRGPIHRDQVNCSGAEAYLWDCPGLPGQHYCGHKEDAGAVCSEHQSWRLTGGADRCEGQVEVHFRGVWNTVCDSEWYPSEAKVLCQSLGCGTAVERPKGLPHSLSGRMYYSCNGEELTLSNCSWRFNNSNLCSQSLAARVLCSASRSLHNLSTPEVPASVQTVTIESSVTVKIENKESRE
Assay: ELISA, plate-bound rhCD6-Fc, T1h 0.2 mg/ml with varying rhALCAM-Fc, anti human IgG (Fab)2 ALP detection
Procedure: The rhCD6FC/Chimera (R and D systems) (100 μg/ml) was diluted in coating buffer and 100 μl was added to each well of a 96 well Nunc-Maxisorp plate. The plate was then incubated at 4° C. overnight. The Plate was washed thrice with PBS Tween 20. Subsequently, 200 μl of blocking solution (2% BSA+0.1%Tween 20 in 1× PBS) was added and incubated for 1 hour at 37° C. After incubation, the plate was washed again with PBS Tween thrice, followed by the addition of T1h monoclonal antibody (0.2 mg/ml) and .rhALCAMFc (R and D systems) at varying concentrations. This was then incubated for an hour at 37° C. The plate was washed 3 times subsequently with PBS Tween. To the wells 200 μl of anti human IgG (Fab)₂ ALP (1:20000) diluted in blocking buffer was added and incubated for 1 hour at 37° C. The plate was washed thrice with PBS tween and 200 μl of p-Nitrophenyl Phosphate (PNPP) substrate is added to each well and incubated at 37° C. till colour develops around 15 minutes. Reading was taken at 405 nm using a BIOTEK Micro Plate Reader.

B1: T1h, humanized IgG1 isotype anti-CD6 monoclonal antibody (antibody, V domains shown)
VH: EVQLVESGGGLVKPGGSLKLSCAASGFKFSRYAMSWVRQAPGKRLEWVATISSGGSYIYYPDSVKGRFTISRDNVKNTLYLQMSSLRSEDTAMYYCARRDYDLDYFDSWGQGTLVTVSS
VL: DIQMTQSPSSLSASVGDRVTITCKASRDIRSYLTWYQQKPGKAPKTLIYYATSLADGVPSRFSGSGSGQDYSLTISSLESDDTATYYCLQHGESPFTLGSGTKLEIK
notes: also called humanized IOR-T1; sT1h
B1: binds.

From US20110002939A1 (BIOCON, published 2011)
